Values of other authors in paper PMC12756081.

Key:
[1] = biological target: IL-18Rα (Homo sapiens) (UniProt Q13478); details: cited from earlier work
[2] = biological target: IL-18Rα/IL-18Rβ (Homo sapiens) (UniProt Q13478); details: cited from earlier work
IL-18Rα/IL-18Rβ (Homo sapiens), sequence (Q13478 19-541, chain 1 of 2): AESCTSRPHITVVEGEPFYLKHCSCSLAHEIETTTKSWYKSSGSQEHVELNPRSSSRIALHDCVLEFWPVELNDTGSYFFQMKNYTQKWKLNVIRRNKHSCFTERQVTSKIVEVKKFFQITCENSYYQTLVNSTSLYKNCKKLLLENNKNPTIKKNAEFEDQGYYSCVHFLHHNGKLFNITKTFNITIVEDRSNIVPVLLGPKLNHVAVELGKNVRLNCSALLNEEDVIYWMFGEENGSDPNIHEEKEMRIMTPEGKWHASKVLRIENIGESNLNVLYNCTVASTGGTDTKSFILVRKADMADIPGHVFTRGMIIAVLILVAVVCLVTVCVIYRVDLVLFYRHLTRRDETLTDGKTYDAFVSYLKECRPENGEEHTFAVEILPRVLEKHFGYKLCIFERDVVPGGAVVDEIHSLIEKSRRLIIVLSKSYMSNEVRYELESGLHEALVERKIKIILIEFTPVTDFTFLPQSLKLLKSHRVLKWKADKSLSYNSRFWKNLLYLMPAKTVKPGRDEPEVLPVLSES
IL-18Rα/IL-18Rβ (Homo sapiens), sequence (O95256 20-599, chain 2 of 2, further chain): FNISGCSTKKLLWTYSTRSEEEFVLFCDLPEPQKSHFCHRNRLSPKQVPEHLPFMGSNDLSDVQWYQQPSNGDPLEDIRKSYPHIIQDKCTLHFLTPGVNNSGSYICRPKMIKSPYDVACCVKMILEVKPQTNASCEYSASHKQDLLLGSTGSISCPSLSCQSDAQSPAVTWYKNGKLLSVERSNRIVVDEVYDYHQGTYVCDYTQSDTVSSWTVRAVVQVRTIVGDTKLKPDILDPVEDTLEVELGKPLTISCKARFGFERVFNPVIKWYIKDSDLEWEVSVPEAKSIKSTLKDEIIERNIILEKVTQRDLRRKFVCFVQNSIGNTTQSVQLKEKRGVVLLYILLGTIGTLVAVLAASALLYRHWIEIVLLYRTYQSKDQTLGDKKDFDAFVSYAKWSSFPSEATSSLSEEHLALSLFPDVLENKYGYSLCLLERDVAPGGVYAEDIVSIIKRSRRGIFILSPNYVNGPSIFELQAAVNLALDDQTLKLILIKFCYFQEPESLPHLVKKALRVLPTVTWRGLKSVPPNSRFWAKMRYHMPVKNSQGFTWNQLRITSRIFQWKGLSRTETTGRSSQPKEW

IL-18, sequence (Q14116 37-193): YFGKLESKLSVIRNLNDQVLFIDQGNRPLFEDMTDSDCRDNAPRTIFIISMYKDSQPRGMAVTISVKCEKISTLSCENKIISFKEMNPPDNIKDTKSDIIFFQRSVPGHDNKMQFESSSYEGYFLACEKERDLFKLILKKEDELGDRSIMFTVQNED
IL-18Rα (Homo sapiens), sequence (Q13478 19-541): as the sequence (Q13478 19-541, chain 1 of 2) above

IL-18 (from UniProt Q14116)
Kd [1]: 30 nM | Kd [2]: 1 nM
